From patent US20250368742A1 (D2M BIOTHERAPEUTICS, published 2025)

T1: human MICA002 on cells (human)
T1 chain: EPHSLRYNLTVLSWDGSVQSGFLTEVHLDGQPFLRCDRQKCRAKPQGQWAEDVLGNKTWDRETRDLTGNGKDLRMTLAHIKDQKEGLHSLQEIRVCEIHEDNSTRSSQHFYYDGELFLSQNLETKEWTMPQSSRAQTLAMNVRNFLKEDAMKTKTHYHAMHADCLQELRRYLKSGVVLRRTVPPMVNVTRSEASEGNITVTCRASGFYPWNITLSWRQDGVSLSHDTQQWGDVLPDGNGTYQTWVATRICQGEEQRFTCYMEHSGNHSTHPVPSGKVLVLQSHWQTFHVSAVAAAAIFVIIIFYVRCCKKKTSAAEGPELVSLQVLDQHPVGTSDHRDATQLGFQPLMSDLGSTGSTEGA

T2: MICA002-ECD-HISAvi (human, UniProt Q29983 24-308)
T2 construct: also called MICA002 polypeptide
T2 chain: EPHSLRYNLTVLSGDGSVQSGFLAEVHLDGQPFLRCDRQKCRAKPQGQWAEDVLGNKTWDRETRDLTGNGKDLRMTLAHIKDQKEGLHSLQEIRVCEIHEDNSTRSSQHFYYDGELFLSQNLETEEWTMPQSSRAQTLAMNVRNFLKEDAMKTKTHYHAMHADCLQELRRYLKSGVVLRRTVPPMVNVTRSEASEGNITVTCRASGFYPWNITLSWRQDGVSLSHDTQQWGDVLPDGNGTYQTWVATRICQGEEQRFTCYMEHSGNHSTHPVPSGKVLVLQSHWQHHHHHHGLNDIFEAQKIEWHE

T3: MICA004-ECD-HISAvi (human)
T3 construct: also called MICA004 polypeptide
T3 chain: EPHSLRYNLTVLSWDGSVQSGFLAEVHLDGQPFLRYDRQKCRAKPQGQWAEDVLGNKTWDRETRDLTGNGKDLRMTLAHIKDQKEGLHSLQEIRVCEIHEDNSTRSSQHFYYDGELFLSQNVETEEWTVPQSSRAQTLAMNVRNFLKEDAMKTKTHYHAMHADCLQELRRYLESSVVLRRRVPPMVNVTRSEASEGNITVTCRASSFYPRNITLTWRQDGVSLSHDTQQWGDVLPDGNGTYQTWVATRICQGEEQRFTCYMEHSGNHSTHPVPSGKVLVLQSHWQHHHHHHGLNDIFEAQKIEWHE

T4: MICA008-ECD-HISAvi (human)
T4 construct: Two sources under one name in the two kinetic assays; also called MICA008 polypeptide
T4 chain: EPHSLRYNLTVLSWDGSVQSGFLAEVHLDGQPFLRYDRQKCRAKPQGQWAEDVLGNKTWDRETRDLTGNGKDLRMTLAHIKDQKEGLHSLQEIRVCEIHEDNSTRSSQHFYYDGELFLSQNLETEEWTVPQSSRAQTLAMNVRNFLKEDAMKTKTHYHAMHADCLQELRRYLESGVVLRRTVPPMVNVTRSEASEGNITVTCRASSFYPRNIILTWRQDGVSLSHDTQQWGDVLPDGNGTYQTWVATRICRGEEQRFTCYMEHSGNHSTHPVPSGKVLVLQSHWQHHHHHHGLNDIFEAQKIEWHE

T5: MICB005-ECD-HISAvi (human, UniProt Q29980 24-309)
T5 construct: Two sources under one name in the two kinetic assays; also called MICB005 polypeptide
T5 sequence: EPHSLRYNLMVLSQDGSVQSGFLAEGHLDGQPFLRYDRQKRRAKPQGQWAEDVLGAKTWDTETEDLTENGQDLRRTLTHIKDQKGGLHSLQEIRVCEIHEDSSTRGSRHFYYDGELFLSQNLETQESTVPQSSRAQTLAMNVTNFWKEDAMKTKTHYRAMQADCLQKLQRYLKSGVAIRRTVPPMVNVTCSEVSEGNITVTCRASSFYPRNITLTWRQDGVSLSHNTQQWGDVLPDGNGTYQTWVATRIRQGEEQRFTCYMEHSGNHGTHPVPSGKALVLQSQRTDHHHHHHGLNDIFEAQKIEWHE


How the values were obtained:
[1] = molecular target: T1, human MICA002 on cells; test: flow cytometry, CHO-MICA002 cells
Experimental: CHO-MICA002 cells were incubated with titrated anti-MICA/B antibodies and then APC-labeled anti-human Fc antibody. […] The antibody binding signals of APC (gMFI) to MICA/B were measured by flow cytometry.
(§1) After an incubation time of 30 minutes, the plate was centrifuged and cells were washed with PBS three times. […] After mixing for 30 minutes at room temperature, cells were washed with PBS twice. Fluorescent signal was detected and quantified by flow cytometry (Attune™ CytPix™, ThermoFisher) within the population of live cells (viability dye PI negative).

[2] = molecular target: T6, human MICA004 on cells (human); test: flow cytometry, CHO-MICA004 cells
T6 construct: whole, on cells; also called CHO-MICA004; C1R-MICA004
Experimental: (§2) IgG1 is an isotype control (IgG). The antibody binding signals of APC (gMFI) to MICA/B were measured by flow cytometry.
as §1

[3] = molecular target: T7, human MICA008 on cells (human); test: flow cytometry, CHO-MICA008 cells
T7 construct: whole, on cells; also called CHO-MICA008; C1R-MICA008
Experimental: as §2, §1

[4] = molecular target: T8, human MICB005 on cells (human); test: flow cytometry, CHO-MICB005 cells
T8 construct: whole, on cells; also called CHO-MICB005; C1R-MICB005
Experimental: as §2, §1

[5] = molecular target: T7, human MICA008 on cells; test: flow cytometry, HeLa cells (MICA008)
Experimental: as §2, §1

[6] = molecular target: T2, MICA002-ECD-HISAvi; test: SPR (Carterra); antibody captured by anti-human Fc, monomeric ECD antigen injected;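 also: dissociation phase followed for about 10 min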
Experimental: (§3) The dissociation kinetics were monitored for approximately 10 minutes. The chip surface was regenerated between binding cycles with 10 mM glycine HCl, pH 1.7. Binding kinetics were analyzed using software supplied by the manufacturer.

[7] = molecular target: T3, MICA004-ECD-HISAvi; test: as above
Experimental: as §3

[8] = molecular target: T4, MICA008-ECD-HISAvi; test: as above
Experimental: as §3

[9] = molecular target: T5, MICB005-ECD-HISAvi; test: as above
Experimental: as §3

T7 sequence (Q29983 whole entry): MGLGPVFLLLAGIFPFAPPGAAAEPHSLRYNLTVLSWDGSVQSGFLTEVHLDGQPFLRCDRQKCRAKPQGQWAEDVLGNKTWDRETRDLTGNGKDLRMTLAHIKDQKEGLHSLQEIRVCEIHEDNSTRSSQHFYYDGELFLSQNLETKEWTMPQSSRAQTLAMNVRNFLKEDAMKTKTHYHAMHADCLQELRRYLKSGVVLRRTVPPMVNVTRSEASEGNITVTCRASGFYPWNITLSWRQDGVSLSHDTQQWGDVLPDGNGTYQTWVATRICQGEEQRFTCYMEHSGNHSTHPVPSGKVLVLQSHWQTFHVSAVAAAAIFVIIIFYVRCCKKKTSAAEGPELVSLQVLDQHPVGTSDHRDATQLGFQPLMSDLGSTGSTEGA
T6 sequence (Q29983 whole entry): as above

EC50 [1] [µg/mL] | EC50 [2] [µg/mL] | EC50 [3] [µg/mL] | EC50 [4] [µg/mL] | EC50 [5] [µg/mL] | Kd [6] [nM] | Kd [7] [nM] | Kd [8] [nM] | Kd [9] [nM] | Binder
0.176 | 0.306 | 0.085 | 0.445 | 0.183 | 13.9 | 30.4 | 20.5 | 45.8 | #40 (antibody, human IgG1, V domains shown, also called PL113C03; Hit ID 40) VH: QVQLQQSGPELVKPGASVKVSCKASGYAFTKYNIYWVKQSHGKSLEWIGYIDPYNGGTVYNQKFKGKATLTVDKSSSTAYMHLNSLTSEDSAVYYCATTDGYSLFTYWGQGTLVTVSA VL: DIQMTQTTSSLSASLGDRVTITCSAGQGINNYLNWYQQKPDGTVKLLIFYTSSLQSGVPSRFSGSGSGADYSLTISNLEPEDIATYYCQQYSKLPLTFGAGTKLELK
3.68 | 7.27 | 1.31 | 1.4 | 4.27 | 14.4 | 139 | 54.8 | 5.37 | #39 (antibody, human IgG1, V domains shown, also called PL114G03; Hit ID 39) VH: QVQLQQSGAELVRPGTSVKVSCKASGYAFTDYLIEWVKQRPGQGLEWIGGINPGSGSTNYNEKFKGKAILTADKSSSTAYMQLSSLTSDDSAVYFCARLDGNYVGYWGQGTTLTVSS VL: DILLTQSPASLSASVGETVTITCRASGNIHNYLAWYQQKQGKSPQLLVYHAKTLADGVPSRFSGSGSGTQYSLKINSLQPEDFGSYYCQHFWSTPWTFGGGTKLEIK

The next lines start with the binder.

Binder | EC50 [1] [µg/mL] | EC50 [2] [µg/mL] | EC50 [3] [µg/mL] | EC50 [4] [µg/mL] | EC50 [5] [µg/mL] | Kd [6] [nM] | Kd [7] [nM] | Kd [8] [nM] | Kd [9] [nM]
#31 (antibody, human IgG1, V domains shown, also called PL116D11; Hit ID 31) VH: EVQLQQSGPELVKPGASVKVSCKASGYAFTKYNIYWVKQSHGKSLEWIGYIDPYNGGTVQNQKFKGKATLTVDKSSSTAYMHLNSLTSEDSAVYYCATTDGYSLFTYWGQGTLVTVSS VL: DIQMTQTTSSLSASLGDRVTISCRASQDIGNYLNWYQQKPDGTVKLLIYYTSRLHSGVPSRFSGSGSGTDYSLTISNLEQEDIATYFCQQGNTLPFTFGSGTKLEIK | 0.232 | 0.221 | 0.051 | 0.21 | 0.183 | 13.2 | 25.3 | 14.4 | 15
#34 (antibody, human IgG1, V domains shown, also called PL111H04; Hit ID 34) VH: QVQLKQSGPELVKPGASVKVSCKASGYAFTKYNIYWVKQSHGKSLEWIGYIDPYNGGTVQNQKFKGKATLTVDKSSSTAYMHLNSLTSEDSAVYYCATTDGYSLFTYWGQGTLVTVSS VL: DIVLTQSPTTMAASPGEKITITCSASSSISSNYLHWYQQKPGFSPKLLIYRTSNLASGVPARFSGSGSGTSYSLTIGTMEAEDVATYYCQQGSSIPFTFGSGTKLEIK | 0.144 | 0.202 | 0.048 | 0.278 | 0.122 | 24.9 | 44.5 | 29.2 | 38
#36 (antibody, human IgG1, V domains shown, also called PL116H11; Hit ID 36) VH: QVQLQQSGPELVKPGASVKVSCKASGYAFTKYNIYWVKQSHGKSLEWIGYIDPYNGGTVYNQKFKGKATLTVDKSSSTAYMHLNSLTSEDSAVYYCATTDGYSLFTYWGQGTLVTVSA VL: DIQMTQTTSSLSASLGDRVTISCRASQDISNYLNWYQQKPDGTVKLLIYYTSRLHSGVPSRFSGSGSGTDYSLTISNLEQEDIATYFCQQGNTLPFTFGSGTKLEIK | 0.2 | 0.248 | 0.063 | 0.249 | 0.189 | 20.7 | 40.1 | 21.2 | 23.1
#38 (antibody, human IgG1, V domains shown, also called PL114H02; Hit ID 38) VH: QVQLQQSGAELARPGASVKLSCKASGYTFSIHWMQWVKQRPGQGLEWIGAIYPGNGDTKYTQKFKGKATLTADKSSSTAYMQLSNLASEDSAVYYCATLYGNYEAYWGQGTLVTVSA VL: DIVLTQSPASLSASVGETVTITCGASENIYGALNWYQRKQGKSPQLLIYGTTNLADGMSSRFSGSGSGRQYSLKISSLHPDDVATYYCQNVLTTPPWTFGGGTKLEIK | 2.48 | 3.93 | 1.1 | 1.42 | 1.85 | 2.49 | 3.77 | 7.04 | 1.78
